Columns and labels:
[1] = target: human VEGFA (Cat. No. Z03073, Genscript) (human) (UniProt P15692); assay: competition ELISA: plate coated with Eylea, Conbercept in dilution series pre-incubated with 5 nM VEGFA, VEGFA bound to Eylea detected. The sheet prints ng/mL, the text prints nM
[2] = target: human VEGFA (Cat. No. Z03073, Genscript) (human) (UniProt P15692); assay: competition ELISA, Eylea coated as competitor, 5 nM VEGFA dimer pre-incubated with Conbercept
[3] = target: human VEGFA (Cat. No. Z03073, Genscript) (human) (UniProt P15692); assay: SPR (Biacore), protein captured on protein A chip, VEGFA as analyte, 25 C
[4] = target: human VEGFA (Cat. No. Z03073, Genscript) (human) (UniProt P15692); assay: ELISA, plate coated with VEGFA, detection with HRP anti-human IgG
[5] = target: human VEGFA (Cat. No. Z03073, Genscript) (human) (UniProt P15692)

Sequence of Eylea (Fc fusion) (chain): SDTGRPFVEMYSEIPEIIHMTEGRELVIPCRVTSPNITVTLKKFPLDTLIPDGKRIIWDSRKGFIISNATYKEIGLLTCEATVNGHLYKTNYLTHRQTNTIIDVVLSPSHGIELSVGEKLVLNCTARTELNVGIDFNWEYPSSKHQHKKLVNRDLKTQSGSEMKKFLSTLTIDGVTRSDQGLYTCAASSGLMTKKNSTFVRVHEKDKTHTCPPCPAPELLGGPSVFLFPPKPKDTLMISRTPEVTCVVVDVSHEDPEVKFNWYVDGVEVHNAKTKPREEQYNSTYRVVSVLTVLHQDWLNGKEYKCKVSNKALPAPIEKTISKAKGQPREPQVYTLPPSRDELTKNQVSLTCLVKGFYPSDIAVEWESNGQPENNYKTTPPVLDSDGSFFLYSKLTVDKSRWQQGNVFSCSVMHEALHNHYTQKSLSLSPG
Sequence of human VEGFA (Cat. No. Z03073, Genscript) (human) (P15692 other isoform, or with tags, fused parts or gaps limits assumed): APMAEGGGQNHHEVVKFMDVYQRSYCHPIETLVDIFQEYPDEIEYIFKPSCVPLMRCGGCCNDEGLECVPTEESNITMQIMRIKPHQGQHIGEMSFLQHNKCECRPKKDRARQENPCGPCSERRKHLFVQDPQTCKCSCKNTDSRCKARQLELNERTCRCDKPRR
Sequence of Conbercept eye injection (Fc fusion) (chain): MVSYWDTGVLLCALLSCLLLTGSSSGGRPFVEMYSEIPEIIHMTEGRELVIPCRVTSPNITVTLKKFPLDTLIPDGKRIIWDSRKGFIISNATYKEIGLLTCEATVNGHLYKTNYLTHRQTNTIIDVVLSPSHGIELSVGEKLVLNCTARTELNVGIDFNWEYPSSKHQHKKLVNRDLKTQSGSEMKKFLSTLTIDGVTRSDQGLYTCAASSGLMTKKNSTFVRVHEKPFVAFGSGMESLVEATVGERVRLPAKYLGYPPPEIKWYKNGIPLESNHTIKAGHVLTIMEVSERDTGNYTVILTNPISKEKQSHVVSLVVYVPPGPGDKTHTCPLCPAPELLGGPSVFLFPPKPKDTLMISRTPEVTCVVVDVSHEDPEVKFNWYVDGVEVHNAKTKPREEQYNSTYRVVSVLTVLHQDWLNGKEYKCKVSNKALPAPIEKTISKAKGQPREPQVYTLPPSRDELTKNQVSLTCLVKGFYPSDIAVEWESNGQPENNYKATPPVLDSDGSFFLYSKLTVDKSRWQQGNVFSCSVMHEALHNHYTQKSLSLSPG

Row | IC50 [1] | IC50 [2] | Kd [3] | EC50 (read off the curve) [4] | IC50 (inhibition of VEGFA-induced HUVEC proliferation, CellTiter-Glo) [5] | Substance
1 | 0.0169 µg/mL | 16.9 nM |  |  |  | Conbercept eye injection (Fc fusion)
2 |  |  | 0.0361 nM | 0.07 µg/mL | 0.0045 µg/mL | Eylea (Fc fusion)

Source: US20240343791A1
